According to US20090053227A1:

Biological target: Kv3.2a (potassium channel Kv3.2a, KCNC2 transcript variant 1) (human) (UniProt Q96PR1)
Assay: flow cytometry on unpermeabilized Kv3.2a-CHO 1A5 cells

Sequence of UniProt Q96PR1 (Q96PR1 other isoform, or with tags, fused parts or gaps mutant): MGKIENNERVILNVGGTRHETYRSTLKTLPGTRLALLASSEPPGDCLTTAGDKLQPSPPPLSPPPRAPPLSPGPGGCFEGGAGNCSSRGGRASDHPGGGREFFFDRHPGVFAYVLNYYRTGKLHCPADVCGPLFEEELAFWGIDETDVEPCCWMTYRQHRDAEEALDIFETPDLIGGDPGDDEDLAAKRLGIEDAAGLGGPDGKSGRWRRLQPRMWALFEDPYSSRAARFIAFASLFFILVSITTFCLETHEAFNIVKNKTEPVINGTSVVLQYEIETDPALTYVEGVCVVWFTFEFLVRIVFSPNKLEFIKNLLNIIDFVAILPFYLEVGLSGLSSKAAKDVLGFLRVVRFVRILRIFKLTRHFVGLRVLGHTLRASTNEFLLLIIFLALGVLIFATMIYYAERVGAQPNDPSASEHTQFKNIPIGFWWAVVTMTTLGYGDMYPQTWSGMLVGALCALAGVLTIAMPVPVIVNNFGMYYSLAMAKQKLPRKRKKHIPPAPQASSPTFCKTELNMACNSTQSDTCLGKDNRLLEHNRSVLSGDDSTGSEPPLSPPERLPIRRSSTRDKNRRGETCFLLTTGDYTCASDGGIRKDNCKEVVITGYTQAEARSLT

percentage shift into gate: 0.01%
Substance: Neg control
